Experimental data as given in patent WO2013167756A1.

Target: CD22 on CD22-positive Raji cells and CD22 positive Ramos cells (human) (UniProt P20273)
Assay: flow cytometry on CD22-positive Raji cells, PE anti-human IgG Fc secondary, four-parameter fit

- EC50: 9 nM
Substance: AGC1100, anti-CD22 monoclonal antibody hLL2, also called epratuzumab
